Assay [1] has as its target T1, cell-surface HPVE11-19/HLA-A*02:01 complex (HPV16; human).
T1 construct: whole, on cells
The assay can be described thus: flow cytometry, MDA-MB-231 pulsed with HPVE11-19 peptide, Alexa647 anti-mouse Fc. Background: A flow cytometer gives signals particle by particle.

Assay [2] has as its target T2, cell-surface CMVP495-503/HLA-A*02:01 complex (human cytomegalovirus (CMV); human).
T2 construct: whole, on cells; also called CMV pp65 peptide complex
As to the kind of experiment: flow cytometry, MDA-MB-231 pulsed with 4 µM CMVP495-503 peptide, Alexa647 anti-mouse Fc.
Description: After completion of pulsing, the cells were washed with a FACS buffer and then centrifuged at 1300 rpm for 3 minutes to remove the supernatant. […] After washing each sample with 1 ml of a FACS buffer, a F(ab′)2 antibody that specifically recognizes Alexa647 (red fluorescence)-conjugated mouse Fc was diluted 1:600 in 100 μl of a FACS buffer, followed by reaction at 4° C. for 30 minutes.

Assay [3] deals with T2, cell-surface CMVP495-503/HLA-A*02:01 …. As to the kind of experiment: flow cytometry, cells pulsed with 50 µM CMVP495-503 peptide, Alexa647 anti-mouse Fc.
Description: After washing each sample with 1 ml of a FACS buffer, a F(ab′)2 antibody (Jackson ImmunoResearch, USA) that specifically recognizes Alexa647 (red fluorescence)-conjugated mouse Fc (Jackson ImmunoResearch, USA) was diluted 1:600 in 100 μl of a FACS buffer, followed by reaction at 4° C. for 30 minutes.
After completion of pulsing, the cells were washed with a FACS buffer and centrifuged at 1300 rpm for 3 minutes to remove the supernatant. […] After washing each sample with 1 ml of a FACS buffer, a F(ab′)2 antibody that specifically recognizes Alexa647 (red fluorescence)-conjugated mouse Fc was diluted 1:600 in 100 μl of a FACS buffer, followed by reaction at 4° C. for 30 minutes.
Assay [4] has the same target. As to the kind of experiment: flow cytometry, 500 nM antibody on MDA-MB-231 cells pulsed with 50 µM peptide.

The source of these data is US20230045418A1 (AJOU UNIVERSITY INDUSTRY ACADEMIC COOPERATION FOUNDATION, published 2023).

Changes are numbered by the printed parent chain.

B1: TCR-like antibody H9 #1 (IgG form, mouse IgG2a / mouse kappa) (antibody, V domains shown)
VH: EVQLVQSGAEVKKPGSSVKVSCKASGGTFSSYAISWVRQAPGQGLEWMGGIIPIFGTANYAQKFQGRVTITADESTSTAYMELSSLRSEDTAVYYCARGDLYYYDSSGYPLWYMDYWGQGTLVTVSS
VL: ETTLTQSPGTLSLSPGERATLSCRASQSVSSSYLAWYQQKPGQAPRLVIYGASSRATGIPDRFSGSGSGTDFTLTISRLEPEDFAVYYCQDYSTYPAFTFGQGTKLEIR
notes: also called #1 clone in IgG form
As for B1, the binding result in assay [1] is “no binding (tested: 50 nM)”; in assay [2] it was “binds”.

B2: TCR-like antibody H9 #38 (IgG form, mouse IgG2a / mouse kappa) (antibody, V domains shown)
VH: B1 VH with L111W, W112Y
VL: B1 VL with D91H, Y92S, S93Y, T94A, Y95F, A97G
notes: also called #38 clone in IgG form
For the molecule B2, the binding result in assay [3] is “binds”.

B3: TCR-like antibody H9 (chimeric full-length IgG, mouse IgG2a / mouse kappa) (antibody, V domains shown)
VH: B1 VH with L111R, W112Y, M114F
VL: B1 VL with D91H, Y95S, A97G
notes: also called H9 clone; H9 antibody
In the case of B3, the binding result in assay [1] is “no binding (tested: 50 nM)”; in assay [4] it was “binds”.

B4: TCR-like antibody H9 #1-30 (IgG form, mouse IgG2a / mouse kappa) (antibody, V domains shown)
VH: B1 VH with G50S, T57A, N59E
VL: B1 VL with A56P, T57R
With B4, the binding result in assay [1] is “no binding (tested: 50 nM)”.

B5: TCR-like antibody H9 #1-17 (IgG form, mouse IgG2a / mouse kappa) (antibody, V domains shown)
VH: B1 VH with G50S, T57V, N59E, Q62H
VL: B1 VL with S54T, A56P
Take B5: the binding result in assay [1] is recorded as “no binding (tested: 50 nM)”; in assay [2], “binds”.
